Experimental data: the nanobody polyreactivity screen of Harvey et al. (2022)

test: yeast display, Sf9 membrane polyspecificity reagent, FACS + sequencing; frameworks hold sequencing errors
In short: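 Synthetic nanobody libraries on Saccharomyces cerevisiae BJ5465 were galactose-induced for 36–48 hours, stained 1 hour at 4 °C with 10% biotinylated, detergent-solubilized Sf9 membrane reagent and enriched on streptavidin microbeads. FACS then separated cells into low and high (top ~1%) gates by anti-HA (expression) and streptavidin (reagent binding) fluorescence. Genes were colony-PCR amplified, MiSeq 2 × 250 sequenced and CDR-length filtered. A clone's polyreactivity label is that of its gate of origin.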

Sequence	polyreactivity (PSR sort gate)
QVQLVESGGGLVQAGGSLRLSCAATGINITSNTMGWYRLAPGKEREFVASINWNGSSTYADSVKGRFTISRDNAKNTVYLQMNSLKPEDTAVYYCNADYNRNSVQFSLYDYWGQGTQVTVSS	low polyreactivity
QVQLVESGGGLVQAGGSLRLSCAATGITFVYNAMGWYRQAPGKERELVAAISWSGTSTYYADSVKGRFTISRDNAKNTVYLQMNSLKPEDTAVYDCSAQSGYPPYGYYYWGQGTQVTVSS	low polyreactivity
QVQLVESGGGLVQAGGSLRLSCAATGITFYPNGMGWYRPAPGKEREFVAAITSSGGSTYYADSVKGRFTISRDNAKNSVYLQMNSLKPEDTAVYYCAAQYYPISYYGYGYWGQGTQVTVSS	low polyreactivity
QVQLVESGGGLVQAGGSLRLSCAATGLTFSTNTMGWYRQAPGKEREFVAAITARGGRTYYADSVKGRFTISRDNAKNTVYLQMNCLKPEDTAVYYCAANAYTYYARIGFDYWGQGTQVTVSS	high polyreactivity
QVQLVESGGGLVQAGGSLRLSCAATGRIFIAYAMGWYRQAPGKEREFVAAISSGGGSTYYADSVKGRFTISRDNAKNTVYLQMNSLKPEDTAVYYCGAWTLYWSHTTWSYDYWGQGTQGTVSS	low polyreactivity
QVQLVESGGGLVQAGGSLRLSCAATGRIFKTYAMGWYRQAPGKERELVAAISWTVVSTHYADSVKGRFTISRDNAKNTVYLQMNSLKPEDTAVYYCNADTPLRHRTWNRKVTDFEYDYWGQGTQVTVSS	low polyreactivity
QVQLVESGGGLVQAGGSLRLSCAATGRIFRVYAMGWYRQAPGKVRELVAAISSGGSTNYADSVKGGFTISRDNAKNTVYLQMKSLKPEDTAVYYCAADYWYRLFWYYGAPLDYWGQGTQVTVSS	low polyreactivity
QVQLVESGGGLVQAGGSLRLSCAATGRIFTYYAMGWYRQAPGKERELVAGISGSGTSTYYADSVKARFTISRDNAKNTVDLQINSLKPEDTAVYYSAADVFRDDVWLDYWGQGTQVTVSS	low polyreactivity
QVQLVESGGGLVQAGGSLRLSCAATGRIFYSNAMGWYRQAPGKERELVAVIRRTGSTYYADSVKGRFTISRDNAKHTVYLQMNSLKPEDTAVYYCATRIPYGRGGNRYDYWGQGTQVTVSS	low polyreactivity
QVQLVESGGGLVQAGGSLRLSCAATGRPSTSMLWDGIDRRLGKKGSSLTYYADSVKGRFTISRDNAKNTVYLQMNCLKPEDTAVYYCNKRRRWDNYGYRYGYWGQGTQVTVSS	low polyreactivity
QVQLVESGGGLVQAGGSLRLSCAATGRSFVHKAMGWYRQAPGKERELVAAISRGGSTYYADSVKGRFTISRDNAKNTVYLQMNSMKPEDTAVYYCAKERRYTGRRSYEFNYWGQGTHVTVSS	low polyreactivity
QVQLVESGGGLVQAGGSLRLSCAATGRSFVLNAMGWYRQAAGKERELVATINYSGSSTYYADSVKGRFTISRDNAKNTVYLQMNSLKPEDTAVYYCNRDVPYRLVYYANYYWGHGTQVTVSS	low polyreactivity
QVQLVESGGGLVQAGGSLRLSCAATGRTFYVNAMGWYRQAPGLEREFVARITSGGSTYYADSVKGRFTISPDKAKNTVYVQKNSLKPEDTAVYYCAADYVSLSVFSYCAWYDYWGQGTQVTVSS	low polyreactivity
QVQLVESGGGLVQAGGSLRLSCAATGRTFYWNAMGWYRQAPGKERELVAAIDSSGGSTYYADSVKGRFTISRDNAKNTVYLQMNSLKPEDTAVYYCNKDYPTYDYDYWGQGTQVTVSS	low polyreactivity
QVQLVESGGGLVQAGGSLRLSCAATGSIFQSYAMGWYRQAPGKERELVAAITARGTSTYYADSVKGRFTISRDNAKNTVYLQMNSLKPEETAVYYCNTDRSRSPGDVESPSDIKRDYWGQGTQVTVSS	low polyreactivity
QVQLVESGGGLVQAGGSLRLSCAATGSIFRRYAMGWYGQAPGKERELVAAISWSGGSTYYADSVKGRFTISRDNAKNTVYLQMNSLKPEDTAVYYCAARHRQQKLDYWGQGTQVTVSS	high polyreactivity
QVQLVESGGGLVQAGGSLRLSCAATGSIFYFNAMGWYRKAPGKERELVADISGSGGSTYYADSVKGRFTISRDNAKNTVYLQMNSLKPEDTAVYYCAARLYLHSWWYYAYDYWGQGTQVTVSS	high polyreactivity
QVQLVESGGGLVQAGGSLRLSCAATGSIIVYNTMGWYRQAPGKERELVAAITVRDDSTYYADSVKGRFTISRDNAKNTVYLQMNSLKPEDTAVYYCNARGNFLIGRDYWGQGTQVTVSS	low polyreactivity
QVQLVESGGGLVQAGGSLRLSCAATGSIYSYAMGWNRQAPGKERELVAAISRSGGRTYYADSVKGRFTISRDNAKNTVYLQMNSLKPEDTAVYYCAADGYSAKYYPGGDYWGQGTQVTVSS	high polyreactivity
QVQLVESGGGLVQAGGSLRLSCAATGSTFYQYALGWYRQAPGKERELVAAISSRGTSTYYADSVKGRFTISRDNAKNTVYLQMNSLKPEDTAVYYCATEYTNWHRTWSLQTGGYGYWGQGTQGTVSS	high polyreactivity
QVQLVESGGGLVQAGGSLRLSCAATRRIFRRNPMGWYIQAPGKERELVATISANGGSTYYADSVKGRFTISRDNAKNTVYLQMNSLKPEATAVYYCAAQGWSWYWYQKIYYWGQGTQVTVSS	high polyreactivity
QVQLVESGGGLVQAGGSLRLSCAATRSTSSKYAMGWYRQAPGKERELVAAITRSGGRTYYAVSVMGRFTISRDYAKNTVYLQMNSLKPEDTAVYYCAAAGVYWEFDYWGQGTQVTVSS	high polyreactivity

Sequence	polyreactivity (PSR sort gate)
QVQLVESGGGLVQAGGSLRLSCAAYGFIFKKYAMGWYRQAPGKERELVAAISGSSTRTYYADSVKGRFTISRDNAKKTVYLQMHSLKPEDTAVYYCVGRFYERDYWGQGTQVTVSS	high polyreactivity
QVQLVESGGGLVQAGGSLRLSCAAYGFTCPLNAMGWYRQAPGKERELVAAISGSSGSTYYADSVKGRFTISRDNAKNTVYLQMNSLKPEDTAVYYCAKKYAWRYYYWGQGTQVTVSS	high polyreactivity
QVQLVESGGGLVQAGGSLRLSCAAYGFTFGVYALGWYRQAPGKERELVAAISRIGGRTYYADSLKGRYTISRDNAKNTVYVQMNSLKPEDTAVYYCAESPRQGMYYWGQGTQVTVSS	high polyreactivity
QVQLVESGGGLVQAGGSLRLSCAAYGIIFTWYVMGWYRQAPGKERELVAAISASGASTYYADSVKGRFTISRDNAKNTVYLQMNSLKPEDTAVYYCAARYGWYPVRQPRPGGDYWGQGTQVTVSS	high polyreactivity
QVQLVESGGGLVQAGGSLRLSCAAYGRIFAYYAMGWYRQAPGKERELVAAISSGGTTNYADSVKGRFTISRDNAKNTVYLQMNSLKPEDTAVYYCNADGWRRSRQYYYWGQGTQVTVSS	low polyreactivity
QVQLVESGGGLVQAGGSLRLSCAAYGRIFGVYAMGWYRPAPGKERELVAAIERRGGTTYYADSVKGRITISRDMAKNTVYLQLNSLKPEDTAVYYCATGSIAAGHYAYNYWGQGTQVTVSS	high polyreactivity
QVQLVESGGGLVQAGGSLRLSCAAYGRIFLLYAMGWYRQAPGKERELVAGISIGGSTNYADSVKGRFTISRDNAKNTVYVQMNSLKPEDTAVYYCNAKRYFASRKNGYYYWGQGTQVTVSS	high polyreactivity
QVQLVESGGGLVQAGGSLRLSCAAYGRIFTINAMGWYRQAPGKERELVASIRSTGGSTYYADSVKGRFTISRDNAKNTVYLQMNSLKPEDTAVYYCAADGGVAWGYGYWGQGTQVTVSS	low polyreactivity
QVQLVESGGGLVQAGGSLRLSCAAYGRIFYAYAMGWYRQAPGKERELVAAITNGGGTTYYADSVKGRFTISRDNAKNTVYLQMNSLKPEDTAVYYCNAVRYTIAHGFYYVPEDYWGQGTQVTVSS	low polyreactivity
QVQLVESGGGLVQAGGSLRLSCAAYGRIFYRNAMGWYRQAPGKERELVAAISRSGGSTYYADSVKGRFTISRDNAKNTVYLQMNSLNPEDTAVYYCNAYRYLQSGPPRYREHGSWGQGTQVTVSS	low polyreactivity
QVQLVESGGGLVQAGGSLRLSCAAYGRIFYYNRMGWYRQAPGKERELVADISFSDGSTYYADSVKGRFTISRDIAKNTVYLQMNSLKPEDTAVYYCAAVIGYDYDYWGQVTQVTVSS	low polyreactivity
QVQLVESGGGLVQAGGSLRLSCAAYGRIIYLNAMGWYRQAPGKERELVATISSSGGTTNYADSVKGRFTISRDNAKNTVYLQMNSLKPEDTAVYYCAAKFVGTTVSEYGYWGQGTQVTVSS	low polyreactivity
QVQLVESGGGLVQAGGSLRLSCAAYGRILSLYAMGWYRQAPGKERQLVAAIRWSGSRTYYADSVKGRFTISRDNAKNTVYLQMNSLKPEDTAVYYCAARDSTNLLSGYTHYYWGQGTQVTVSS	high polyreactivity
QVQLVESGGGLVQAGGSLRLSCAAYGRTFARYAMGWYRQAPGKERELVAAISKSGVSTYYADSVKGRFTISRDHAKNTLYLQMNSLKPEDTAVYYCAAYVRQLQVVRGVSNYDSWGQGTQVTVSS	high polyreactivity
QVQLVESGGGLVQAGGSLRLSCAAYGRTFDTYAMGGYRQAPGKERELVAAITKGGGSTYYADSVKGRFTISRDNAKNTVYLQMNSLKPEDTAVYYCNDRVHGEYFHGIRYYYWGQGTQVTVSS	low polyreactivity
QVQLVESGGGLVQAGGSLRLSCAAYGRTFGLNAMGWYRQAPGKERELVAAISSSGGSTYYADSVKGRFTISRDNAKNTVYLQMNSLKPEDTAVYYCARVPLHRYGYWGQGTQVNVSS	high polyreactivity
QVQLVESGGGLVQAGGSLRLSCAAYGRTFGRYAMGWYRQAPGKERELVAVINGGGSTYYADSVKGRFTISRDNAKNTVYLQMNSLKPEDTAVDYCAVGGYTRTGGWFDYWGQGTQVTVSS	high polyreactivity
QVQLVESGGGLVQAGGSLRLSCAAYGRTFGYNTMGWYRQAPGKERELVATIRTNGVSTYYADSVKGRFTISRDNAKNTVYLQMNSLKPEDTAVYYCNADPHDQYDYWGQGTQVTVSS	low polyreactivity
QVQLVESGGGLVQAGGSLRLSCAAYGRTFWNYAMGWYRQAPGKERELVAAISSSGGTTYYADSVKGRFTISRDNAKNTVYLQMNSLKPEDTAVYYCAATGVSKPQRSFVYWGQGTQVTVSS	low polyreactivity
QVQLVESGGGLVQAGGSLRLSCAAYGRTLRYYAMGWYRQAPGKERELVAAISSGGTTNYADSVKGRFTISRDNAKNTVYLQMNSLKPEDTAVYYCAARYRRFRFTQYDYWGQGTQVTVSS	high polyreactivity
QVQLVESGGGLVQAGGSLRLSCAAYGRTSRRNAMGWYRQAPGKERELVAAINRTGGTTYYADYVKGRFTISRDNAKNTVYLQMNSLKPVVNAVYYCAAGAPLSTPRGTTYRYYYWGQGTQVTVSS	high polyreactivity
